Measurements published in the supplement of paper PMC7877785.
± gives the uncertainty stated by the source.

Experiment: self-splicing fitness, log relative to wild type (ln ratio); higher = more splicing; Tetrahymena group I intron in knt gene, E. coli kanamycin selection, DiMSum; sequences stand for … in CUCUCU…GGAGGGAAAAGUUAUCAGGCAUGCACCUGGUAGCUAGUCUUUAAACCAAUAGAUUGCAUCGGUUUAAAAGGCAAGACCGUCAAAUUGCGGGAAAGGGGUCAACAGCCGUUCAGUACCAAGUCUCAGGGGAAACUUUGAGAUGGCCUUGCAAAGGGUAUGGUAAUAAGCUGACGGACAUGGUCCUAACCACGCAGCCAAGUCCUAAGUCAACAGAUCUUCUGUUGAUAUGGAUGCAGUUCACAGACUAAAUGUCGGUCGGGGAAGAUGUAUUCUUCUCAUAAGAUAUAGUCGGACCUCUCCUUAAUGGGAGCUAGCGGAUGAAGUGAUGCAACACUGGAGCCGCUGGGAACUAAUUUGUAUGCGAAAGUAUAUUGAUUAGUUUUGGAGUACUCGUGGUCG
In short: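 Fitness was computed with DiMSum as the error-weighted combination of replicate fold changes, kanamycin versus none, each normalised to wild type. The library randomised all eight intron nucleotides of the P1ex region, with the intron placed in the knt kanamycin-resistance gene on pET-22b(+) in E. coli BL21(DE3). Six replicate transformations were grown overnight at 37°C or 30°C on LB agar with or without 25 μg/mL kanamycin, plus 100 μg/mL carbenicillin, 50 μM IPTG and 0.2% rhamnose. Pooled colonies were amplicon-sequenced on an Illumina HiSeq 2500.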

Sequence	self-splicing fitness (ln) (30 °C)	self-splicing fitness (ln) (37 °C)
GUGAAGCAAUAUUACGUCGG	-0.498 ± 0.077	0.15 ± 0.1
GUGAAGCAAUAUUACGUGAC	-2.77 ± 0.23	-2.18 ± 0.27
GUGAAGCAAUAUUACGUUAC	-2.88 ± 0.11	-1.52 ± 0.13
GUGAAGCAAUAUUACGUUAG	-1.06 ± 0.098	0.151 ± 0.14
GUGAAGCAAUAUUACGUUGG	-2.81 ± 0.13	-1.65 ± 0.12
GUGAAGCAAUAUUACGUUUG	-2.25 ± 0.09	-1.85 ± 0.12
GUGCAGCAAUAUUACGACAA	-0.582 ± 0.066	-0.153 ± 0.07
GUGCAGCAAUAUUACGACAC	-1.57 ± 0.25	-0.906 ± 0.2
GUGCAGCAAUAUUACGACAG	-2.83 ± 0.14	-1.71 ± 0.16
GUGCAGCAAUAUUACGACUC	-0.543 ± 0.13	0.542 ± 0.19
GUGCAGCAAUAUUACGACUG	-4.5 ± 0.39	-2.84 ± 0.28
GUGCAGCAAUAUUACGAGCU	-1.45 ± 0.062	-0.353 ± 0.082
GUGCAGCAAUAUUACGAGGA	-3.01 ± 0.2	-1.74 ± 0.29
GUGCAGCAAUAUUACGAGUA	-2.62 ± 0.34	-1.8 ± 0.21
GUGCAGCAAUAUUACGAUCU	-0.791 ± 0.052	-0.194 ± 0.062
GUGCAGCAAUAUUACGAUUA	-1.38 ± 0.13	-0.611 ± 0.12
GUGCAGCAAUAUUACGCAGA	-2.57 ± 0.46	-1.53 ± 0.23
GUGCAGCAAUAUUACGCGAA	-1.62 ± 0.1	-0.106 ± 0.085
GUGCAGCAAUAUUACGCGCG	-2.41 ± 0.13	-1.98 ± 0.16
GUGCAGCAAUAUUACGCGUA	-1.62 ± 0.13	-0.278 ± 0.1
GUGCAGCAAUAUUACGCGUU	-2.7 ± 0.11	-1.18 ± 0.1
GUGCAGCAAUAUUACGGAAA		-1.63 ± 0.34
GUGCAGCAAUAUUACGGAGU	-3.05 ± 0.12	-2.07 ± 0.11
GUGCAGCAAUAUUACGGCCC	-0.475 ± 0.11	-0.704 ± 0.17
GUGCAGCAAUAUUACGGGCU	-1.95 ± 0.15	-1.2 ± 0.12
GUGCAGCAAUAUUACGUAAG	0.0919 ± 0.087	-0.00974 ± 0.1

Sequence	self-splicing fitness (ln) (30 °C)	self-splicing fitness (ln) (37 °C)
GUGCAGCAAUAUUACGUCCA	-1.53 ± 0.28	-0.793 ± 0.27
GUGCAGCAAUAUUACGUGCA	-3.19 ± 0.15	-2.41 ± 0.17
GUGCAGCAAUAUUACGUGGG	-2.86 ± 0.11	-2.01 ± 0.11
GUGCAGCAAUAUUACGUUAA	-1.75 ± 0.13	-1.25 ± 0.13
GUGCAGCAAUAUUACGUUCC	-2.72 ± 0.18	-1.05 ± 0.25
GUGCAGCAAUAUUACGUUGG	-2.58 ± 0.084	-1.56 ± 0.097
GUGGAGCAAUAUUACGACGA		-1.12 ± 0.46
GUGGAGCAAUAUUACGAGUA		-1.96 ± 0.44
GUGGAGCAAUAUUACGCUUG	-1.21 ± 0.16	-1.25 ± 0.21
GUGGAGCAAUAUUACGGCGA	-0.352 ± 0.17	-1.43 ± 0.23
GUGGAGCAAUAUUACGGCUU	-1.6 ± 0.28	
GUGGAGCAAUAUUACGGGCA	-2.2 ± 0.28	-1.76 ± 0.45
GUGGAGCAAUAUUACGUAAC	-0.784 ± 0.18	-0.991 ± 0.28
GUGGAGCAAUAUUACGUACG		-2.05 ± 0.23
GUGGAGCAAUAUUACGUUUG	-3.31 ± 0.26	-2.79 ± 0.3
GUGUAGCAAUAUUACGAAAC	-3.2 ± 0.41	-1.89 ± 0.34
GUGUAGCAAUAUUACGAUCU	-1.04 ± 0.1	0.329 ± 0.11
GUGUAGCAAUAUUACGAUUA	-1.58 ± 0.27	0.0491 ± 0.2
GUGUAGCAAUAUUACGCACA		-1.5 ± 0.2
GUGUAGCAAUAUUACGCAGU	-3.25 ± 0.21	-2.46 ± 0.23
GUGUAGCAAUAUUACGCCAA		-1.85 ± 0.34
GUGUAGCAAUAUUACGCCAG		-1.12 ± 0.5
GUGUAGCAAUAUUACGCCGU	-1.25 ± 0.17	-1.67 ± 0.36
GUGUAGCAAUAUUACGCGAA	-2.15 ± 0.17	-0.555 ± 0.14
GUGUAGCAAUAUUACGCGUU		-0.621 ± 0.17
